The series “cryo-EM structure” concerns the molecule itself. In words: cryo-EM structure.
The series “crystal structure” concerns the molecule itself. In words: crystal structure.

B1: AcrB as it stands in the efflux pump assembly (AcrB moiety of the AcrA-AcrB fusion) (domain or fragment, E. coli, UniProt P31224 1-1047, looked up)
chain: MPNFFIDRPIFAWVIAIIIMLAGGLAILKLPVAQYPTIAPPAVTISASYPGADAKTVQDTVTQVIEQNMNGIDNLMYMSSNSDSTGTVQITLTFESGTDADIAQVQVQNKLQLAMPLLPQEVQQQGVSVEKSSSSFLMVVGVINTDGTMTQEDISDYVAANMKDAISRTSGVGDVQLFGSQYAMRIWMNPNELNKFQLTPVDVITAIKAQNAQVAAGQLGGTPPVKGQQLNASIIAQTRLTSTEEFGKILLKVNQDGSRVLLRDVAKIELGGENYDIIAEFNGQPASGLGIKLATGANALDTAAAIRAELAKMEPFFPSGLKIVYPYDTTPFVKISIHEVVKTLVEAIILVFLVMYLFLQNFRATLIPTIAVPVVLLGTFAVLAAFGFSINTLTMFGMVLAIGLLVDDAIVVVENVERVMAEEGLPPKEATRKSMGQIQGALVGIAMVLSAVFVPMAFFGGSTGAIYRQFSITIVSAMALSVLVALILTPALCATMLKPIAKGDHGEGKKGFFGWFNRMFEKSTHHYTDSVGGILRSTGRYLVLYLIIVVGMAYLFVRLPSSFLPDEDQGVFMTMVQLPAGATQERTQKVLNEVTHYYLTKEKNNVESVFAVNGFGFAGRGQNTGIAFVSLKDWADRPGEENKVEAITMRATRAFSQIKDAMVFAFNLPAIVELGTATGFDFELIDQAGLGHEKLTQARNQLLAEAAKHPDMLTSVRPNGLEDTPQFKIDIDQEKAQALGVSINDINTTLGAAWGGSYVNDFIDRGRVKKVYVMSEAKYRMLPDDIGDWYVRAADGQMVPFSAFSSSRWEYGSPRLERYNGLPSMEILGQAAPGKSTGEAMELMEQLASKLPTGVGYDWTGMSYQERLSGNQAPSLYAISLIVVFLCLAALYESWSIPFSVMLVVPLGVIGALLAATFRGLTNDVYFQVGLLTTIGLSAKNAILIVEFAKDLMDKEGKGLIEATLDAVRMRLRPILMTSLAFILGVMPLVISTGAGSGAQNAVGTGVMGGMVTATVLAIFFVPVFFVVVRRRFSRKNEDIEHSHTVD
As for B1, the “stoichiometry N” value in the series “cryo-EM structure” came to 3.

B2: AcrB with the C-terminal histidines removed (pET21a-acrBΔHis) (natural protein, E. coli, UniProt P31224 1-1047, looked up)
chain: B1 chain
With B2, the “stoichiometry N” value in the series “crystal structure” is 3.

B3: TolC (tolC1392, coexpressed from pRSFduet-1-acrA-polyGS-acrZHis5-tolC1392) (natural protein)
chain: ENLMQVYQQARLSNPELRKSAADRDAAFEKINEARSPLLPQLGLGADYTYSNGYRDANGINSNATSASLQLTQSIFDMSKWRALTLQEKAAGIQDVTYQTDQQTLILNTATAYFNVLNAIDVLSYTQAQKEAIYRQLDQTTQRFNVGLVAITDVQNARAQYDTVLANEVTARNNLDNAVEQLRQITGNYYPELAALNVENFKTDKPQPVNALLKEAEKRNLSLLQARLSQDLAREQIRQAQDGHLPTLDLTASTGISDTSYSGSKTRGAAGTQYDDSNMGQNKVGLSFSLPIYQGGMVNSQVKQAQYNFVGASEQLESAHRSVVQTVRSSFNNINASISSINAYKQAVVSAQSSLDAMEAGYSVGTRTIVDVLDATTTLYNAKQELANARYNYLINQLNIKSALGTLNEQDLLALNNALSKPVSTNPENVAPQTPEQNAIAD
Take B3: the “stoichiometry N” value in the series “cryo-EM structure” came out at 3.

The values are drawn from PMC4361902 (Nature, 2014).
